Changes are numbered by the printed parent chain. Names may count otherwise.
Assays:
[1] = molecular target: Vps1(ΔInsB) (S. cerevisiae) (UniProt P21576); test: SEC-MALS; purified Vps1 (~0.32 mg/ml) on Superose 6 10/300 GL, 20 mM HEPES pH 7.5, 150 mM NaCl, room temperature; self-association in solution
[2] = molecular target: the molecule itself; test: as above

Vps1(ΔInsB) (from UniProt P21576 1-535; P21576 613-704) (enzyme)
stoichiometry N [1]: 2

B1: Vps1(Δ3K) (enzyme, S. cerevisiae, UniProt P21576 1-704, looked up)
chain: MDEHLISTINKLQDALAPLGGGSQSPIDLPQITVVGSQSSGKSSVLENIVGRDFLPRGTGIVTRRPLVLQLINRRPKKSEHAKVNQTANELIDLNINDDDKKKDESGKHQNEGQSEDNKEEWGEFLHLPGKKFYNFDEIRKEIVKETDKVTGANSGISSVPINLRIYSPHVLTLTLVDLPGLTKVPVGDQPPDIERQIKDMLLKYISKPNAIILSVNAANTDLANSDGLKLAREVDPEGTRTIGVLTKVDLMDQGTDVIDILAGRVIPLRYGYIPVINRGQKDIEHKKTIREALENERKFFENHPSYSSKAHYCGTPYLAKKLNSILLHHIRQTLPEIKAKIEATLKKYQNELINLGPETMDSASSVVLSMITDFSNEYAGILDGEAKELSSQELSGGARISYVFHETFKNGVDSLDPFDQIKDSDIRTIMYNSSGSAPSLFVGTEAFEVLVKQQIRRFEEPSLRLVTLVFDELVRMLKQIISQPKYSRYPALREAISNQFIQFLKDATIPTNEFVVDIIKAEQTYINTAHPDLLKGSQAMVMVEEKLHPRQVAVDPKTGKPLPTQPSSSKAPVMEEKSGFFGGFFSTKNLAALESPPPVLKATGQMTERETMETEVIKLLISSYFSIVKRTIADIIPKALMLKLIVKSKTDIQKVLLEKLYGKQDIEELTKENDITIQRRKECKKMVEILRNASQIVSSV
notes: Vps1, S. cerevisiae, lacking the lysine-rich 3K motif (residues 591-593) of Insert B; Same tags as m1; source: bacterially expressed, T7 Express (NEB), purified (Strep-trap HP or Streptactin XT)
stoichiometry N [2]: 4

B2: Vacuolar protein sorting-associated protein 1 (Vps1), wild type, recombinant (enzyme, S. cerevisiae, UniProt P21576 1-704, looked up)
chain: MDEHLISTINKLQDALAPLGGGSQSPIDLPQITVVGSQSSGKSSVLENIVGRDFLPRGTGIVTRRPLVLQLINRRPKKSEHAKVNQTANELIDLNINDDDKKKDESGKHQNEGQSEDNKEEWGEFLHLPGKKFYNFDEIRKEIVKETDKVTGANSGISSVPINLRIYSPHVLTLTLVDLPGLTKVPVGDQPPDIERQIKDMLLKYISKPNAIILSVNAANTDLANSDGLKLAREVDPEGTRTIGVLTKVDLMDQGTDVIDILAGRVIPLRYGYIPVINRGQKDIEHKKTIREALENERKFFENHPSYSSKAHYCGTPYLAKKLNSILLHHIRQTLPEIKAKIEATLKKYQNELINLGPETMDSASSVVLSMITDFSNEYAGILDGEAKELSSQELSGGARISYVFHETFKNGVDSLDPFDQIKDSDIRTIMYNSSGSAPSLFVGTEAFEVLVKQQIRRFEEPSLRLVTLVFDELVRMLKQIISQPKYSRYPALREAISNQFIQFLKDATIPTNEFVVDIIKAEQTYINTAHPDLLKGSQAMVMVEEKLHPRQVAVDPKTGKPLPTQPSSSKAPVMEEKSGFFGGFFSTKNKKKLAALESPPPVLKATGQMTERETMETEVIKLLISSYFSIVKRTIADIIPKALMLKLIVKSKTDIQKVLLEKLYGKQDIEELTKENDITIQRRKECKKMVEILRNASQIVSSV
notes: Vps1, S. cerevisiae; the Vps1 gene amplified from genomic DNA and cloned into pET15b; A TEV site follows the N-terminal 6xHis tag; also called WT; wild-type Vps1; source: bacterially expressed, T7 Express (NEB), purified (Strep-trap HP or Streptactin XT)
binding result [2]: binds

B3: Vps1(G436D) (enzyme, S. cerevisiae, UniProt P21576 1-704, looked up)
chain: B2 chain with G436D
notes: Vps1, S. cerevisiae, with G436D made by site-directed mutagenesis of the pET15b construct; Same tags as m1; source: bacterially expressed, T7 Express (NEB), purified (Strep-trap HP or Streptactin XT)
stoichiometry N [2]: 2

B4: Vps1(Δ4F) (enzyme, S. cerevisiae, UniProt P21576 1-704, looked up)
chain: MDEHLISTINKLQDALAPLGGGSQSPIDLPQITVVGSQSSGKSSVLENIVGRDFLPRGTGIVTRRPLVLQLINRRPKKSEHAKVNQTANELIDLNINDDDKKKDESGKHQNEGQSEDNKEEWGEFLHLPGKKFYNFDEIRKEIVKETDKVTGANSGISSVPINLRIYSPHVLTLTLVDLPGLTKVPVGDQPPDIERQIKDMLLKYISKPNAIILSVNAANTDLANSDGLKLAREVDPEGTRTIGVLTKVDLMDQGTDVIDILAGRVIPLRYGYIPVINRGQKDIEHKKTIREALENERKFFENHPSYSSKAHYCGTPYLAKKLNSILLHHIRQTLPEIKAKIEATLKKYQNELINLGPETMDSASSVVLSMITDFSNEYAGILDGEAKELSSQELSGGARISYVFHETFKNGVDSLDPFDQIKDSDIRTIMYNSSGSAPSLFVGTEAFEVLVKQQIRRFEEPSLRLVTLVFDELVRMLKQIISQPKYSRYPALREAISNQFIQFLKDATIPTNEFVVDIIKAEQTYINTAHPDLLKGSQAMVMVEEKLHPRQVAVDPKTGKPLPTQPSSSKAPVMEEKTKNKKKLAALESPPPVLKATGQMTERETMETEVIKLLISSYFSIVKRTIADIIPKALMLKLIVKSKTDIQKVLLEKLYGKQDIEELTKENDITIQRRKECKKMVEILRNASQIVSSV
notes: Vps1, S. cerevisiae, lacking the phenylalanine-rich 4F motif (residues 579-587) of Insert B; Same tags as m1; source: bacterially expressed, T7 Express (NEB), purified (Strep-trap HP or Streptactin XT)
stoichiometry N [2]: 4
